Measured values published in patent US8709811B2, “Materials and methods for synthesis of a flavor and aroma volatile in plants” (University of Florida Research Foundation, Inc., priority 2003, dated 2014).
Entries after “also recorded” stand apart in the source; their conditions may differ.

Columns and labels:
phenylalanine = assay: Phenylalanine decarboxylase expression in E. coli: phenethylamine production in media containing phenylalanine, GC; format: cell-based; details: grown in the presence of phenylalanine, confirmed by GC-MS
Description: The full-length aromatic amino acid decarboxylase cDNAs were cloned by sequencing putative clones from the TIGR database. Following sequence analysis the full-length coding sequence was obtained by PCR, and cloned into vector pENTR/D-TOPO. The coding region was then cloned into vector pDEST15 containing a GST tag (Invitrogen) by recombination, and transformed into E. coli strain […] (Invitrogen) for inducible protein expression. Production of the recombinant protein was confirmed by protein blotting with anti-GST antibodies. Enzyme activity was determined by growing E. coli strains expressing the aromatic amino acid decarboxylases in media containing 19.4 mM phenylalanine. Volatile compounds were extracted from the cultures using an equal volume of hexanes. Extracts were concentrated and analyzed by gas chromatography on an Agilent DB-5 column on an Agilent 6890N gas chromatograph. Identification of phenethylamine was confirmed by GC-mass spectrometry as described by Schmelz et al. (2001).
The coding regions of the full-length aromatic amino acid decarboxylases were cloned in vector pDEST15 with a GST tag and transformed into E. coli BL21-SI cells for inducible expression. The production of recombinant proteins in E. coli was confirmed by Western blotting with an anti-GST antibody. […] Volatile compounds were extracted from these cultures and analyzed by gas chromatography. […]

[1] = In vitro phenylethanol dehydrogenase activity of E. coli expressed petunia homolog; format: biochemical; details: E. coli expressed protein
Description: FIGS. 14A-14B show the nucleotide (SEQ ID NO: 10) and amino acid sequence (SEQ ID NO: 11) of a petunia homolog of the tomato phenylethanol dehydrogenase.

Molecule	Production of phenethylamine by E. coli cultures expressing the decarboxylase (phenylalanine)	Phenylethanol dehydrogenase activity in vitro [1]
cLEC73K23: tomato phenylalanine decarboxylase cLEC73K23, SEQ ID NO: 7, encoded by SEQ ID NO: 6 (protein, listed as Lycopersicon esculentum) MGSLSLEMDFEPSPMTPRSLAAMTPRSLARRRLFPNVDNKKQKMAQPGAGPRKNLELEVMEPALKNDGPSLDTILVNYLDTLTQRVNYHLGYPVNICYDHYATLAPLLQFHLNNCGDPFLQNTVDFHSKDFEVAVLNWFAKLWEIEKDQYWGYVTNGGTEGNLHGILLGRELLPEGILYASKDSHYSVFKAARMYRMDSETINTSVNGEMDYSDLRAKLLQNKDKPAIINVTIGTTFKGAIDDLDVILEILKECGYSQDRFYIHCDAALCGLMTPFINNMISFKKPIGSVTISGHKFLGCPMPCGVQITRKSYINNLSTNVEYIASVDATISGSRNGLTPIFLWYSLSAKGQVGLQKDVKRCLDNAKYLKDRLQQAGISVMLNELSIIVVLERPRDHEFVRRWQLSCVKDMAHVIVMPGITREMLDNFMSELVQQRKVWYQNGKTDPPCVGEDIGAQNCACSYHKIDYICP	produced a compound with the same retention time as phenethylamine; also recorded: produce phenethylamine	–
petunia homolog of the tomato phenylethanol dehydrogenase: petunia 2-phenylethanol dehydrogenase, SEQ ID NO: 11, encoded by SEQ ID NO: 10 (protein, listed as Lycopersicon esculentum) MSSVAATKTVCVTGASGYIASWLVNFLLQRGYTVKASVRDPNDPKKTQHLISLGGAKERLHLFKANLLEEGSFDAVVDGCEGVFHTASPFYYSVTDPQAELLDPAVKGTLNLLGSCAKAPSVKRVVLTSSIAAVAYSGEPRTPEVVVDESWWTSPDYCREKQLWYVLSKTLAEDAAWKFVKEKGIDMVAINPAMVIGPLLQPTLNTSSAAVLNLVNGAETYPNATFGWVNVKDVANAHILAFENPSANGRYLMVERVAHYSDILKILRELYPTMRLPEKCADDNPLMQNYQVSKERAKSLGVEFTPLEESIKETVESLKEKKFFGGSSAM	–	exhibits phenylethanol dehydrogenase activity
cLEC75E21: tomato phenylalanine decarboxylase cLEC75E21, SEQ ID NO: 5, encoded by SEQ ID NO: 4 (protein, listed as Lycopersicon esculentum) MGSLSFEKDFEPSAITPRGLAPPGLIVNGDFGEMMRLKVSSTPTTPRKNLNLSVTEPGKNDGPSLDCTLMNYIDTLTQRINYHIGYPVNICYEHYANLAPLLQFHLNNCGDPFLQNTVDFHSKDFEVAVLNWFADLWEIERDQYWGYVTNGGTEGNLHGILVGRELFPDGILYASKDSHYSVAKAAMMYRMDFENINASINGEIDYSDLKVKLLQNKGKPAIINVTIGTTFKGAVDDLDVILQILEECGYTRDQFYIHCDAALNGLIIPFIKNMITFKKPIGSVTISGHKFLGCPMPCGVQITRKSYINNLSRRVEYIASVDATISGSRNGLTPIFLWYSISAKGQIGFQKDVKRCFDNAKYLKDRLQQAGISVMLNELSIIVVLERPRDHEFVRRWQLSCVRDMAHVIVMPGITRETLDGFINDLLQQRKKWYQDGRISPPCVANDIGAQNCACSYHKIDYIIA	produced a compound with the same retention time as phenethylamine; also recorded: produce phenethylamine	–
